From article PMC12215978, “CryoEM structure of the SLFN14 endoribonuclease reveals insight into RNA binding and cleavage” (Nature Communications, 2025) come the findings set out here.

“And” between values parts separate entries of the source, which are not always exact repeats. Equal entries are not always repeated.

Data set [1] has as its target SLFN14^ΔCTD, SLFN14 C-terminal truncation that lacks the CTD (human). In words: SEC; Superdex-200 Increase 3.2/300, 5–10 μM protein, storage buffer (20 mM Tris pH 7.4, 150 mM NaCl, 5 mM MgCl2, 1 mM TCEP), calibrated with gel filtration standards. A general note: Size exclusion chromatography separates by hydrodynamic size, large species first.
Data set [2] has as its target isolated SLFN14 CTD (SLFN14^CTD) (human). The description is as above.
Data set [3] concerns the molecule itself. Description: mass photometry; purified SLFN14 in solution; also exposed to high salt conditions; methods not shown.

Turning to “SLFN14^ΔCTD, SLFN14 C-terminal truncation that lacks the CTD (domain or fragment)”, the stoichiometry N (as a rule, the number of molecules, sites or subunits per partner or assembly) in data set [1] was determined as 2.

As to “isolated SLFN14 CTD (SLFN14^CTD) (domain or fragment)”, in data set [2], the stoichiometry N stood at 2.

B1: full-length recombinant human SLFN14 (residues 1–912), C-terminally Flag-tagged (enzyme, UniProt P0C7P3 1-912, looked up)
chain: MESLKTDTEMPYPEVIVDVGRVIFGEENRKKMTNSCLKRSENSRIIRAICALLNSGGGVIKAEIDDKTYSYQCHGLGQDLETSFQKLLPSGSQKYLDYMQQGHNLLIFVKSWSPDVFSLPLRICSLRSNLYRRDVTSAINLSASSALELLREKGFRAQRGRPRVKKLHPQQVLNRCIQEEEDMRILASEFFKKDKLMYKEKLNFTESTHVEFKRFTTKKVIPRIKEMLPHYVSAFANTQGGYVLIGVDDKSKEVVGCKWEKVNPDLLKKEIENCIEKLPTFHFCCEKPKVNFTTKILNVYQKDVLDGYVCVIQVEPFCCVVFAEAPDSWIMKDNSVTRLTAEQWVVMMLDTQSAPPSLVTDYNSCLISSASSARKSPGYPIKVHKFKEALQRHLFPVTQEEVQFKPESLCKKLFSDHKELEGLMKTLIHPCSQGIVIFSRSWAGDVGFRKEQNVLCDALLIAVNSPVVLYTILIDPNWPGGLEYARNTAHQLKQKLQTVGGYTGKVCIIPRLIHLSSTQSRPGEIPLRYPRSYRLADEEEMEDLLQALVVVSLSSRSLLSDQMGCEFFNLLIMEQSQLLSESLQKTRELFIYCFPGVRKTALAIKIMEKIKDLFHCKPKEILYVCESDSLKDFVTQQTTCQAVTRKTFMQGEFLKIKHIVMDETENFCSKYGNWYMKAKNITHPKAKGTGSENLHHGILWLFLDPFQIHHADVNGLPPPSAQFPRKTITSGIHCALEIAKVMKEEMKRIKENPPSNMSPDTLALFSETAYEEATCAQALPGVCETKTNLTTEQIANYVARKCHSLFQCGYLPKDIAILCRRGEDRGRYRLALLKAMELIETHRPSEVVFSPATGVWGSHIVLDSIQQFSGLERTVVFGLSPECDQSEEFHKLCFASRAIKHLYLLYEKRAAY
notes: human SLFN14, full length, residues 1-912; The sample keeps co-purified cellular nucleic acid, and the structure has RNA in the cleft; also called SLFN14 wild-type (WT); Schlafen 14; not shown: Flag, C-terminal, kept
Take B1: the “stoichiometry N” value in data set [3] was 2 and 4.
